Where no end group is shown, it is not given here.
T1: JMJDA Tudor domain
T1 chain: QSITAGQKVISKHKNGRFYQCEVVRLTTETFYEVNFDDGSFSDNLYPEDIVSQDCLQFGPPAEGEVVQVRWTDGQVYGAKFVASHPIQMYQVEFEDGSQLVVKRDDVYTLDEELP

T2: BPTF PHD finger
T2 chain: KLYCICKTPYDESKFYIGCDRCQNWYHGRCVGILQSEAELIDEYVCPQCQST

T3: JARID1A PHD finger
T3 chain: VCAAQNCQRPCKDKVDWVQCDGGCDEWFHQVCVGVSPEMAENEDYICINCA

T4: TAF3 PHD finger
T4 chain: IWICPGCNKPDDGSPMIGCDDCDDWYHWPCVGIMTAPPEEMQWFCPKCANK


Columns and labels:
Assay in all cases: ITC
JMJDA Tudor domain = molecular target: T1, JMJDA Tudor domain
BPTF PHD finger = molecular target: T2, BPTF PHD finger
JARID1A PHD finger = molecular target: T3, JARID1A PHD finger
TAF3 PHD finger = molecular target: T4, TAF3 PHD finger

Row | Binder | Kd (JMJDA Tudor domain) [nM] | Kd (BPTF PHD finger) [nM] | Kd (JARID1A PHD finger) [nM] | Kd (TAF3 PHD finger) [nM]
1 | ARTKQTARKSTGGKA (serotonylated glutamine at 5; C-terminal amide (general statement of the peptide synthesis)) [H3Q5ser histone H3 tail peptide (ITC)] | – | – | – | 3790
2 | ARTKQTARKSTGGKA-NH2 [unmodified histone H3 N-terminal tail peptide (ITC)] | – | – | – | 21500
3 | ARTK(Me3)QTARKSTGGKA-NH2 [H3K4me3 histone H3 tail peptide (ITC)] | – | 1810 | 1680 | –

The remaining lines, values ahead:

Row | Kd (JMJDA Tudor domain) [nM] | Kd (BPTF PHD finger) [nM] | Kd (JARID1A PHD finger) [nM] | Kd (TAF3 PHD finger) [nM] | Binder
4 | 3610 | 2720 | 2900 | – | ARTKQTARKSTGGKA (trimethyl-lysine at 4; serotonylated glutamine at 5; C-terminal amide (general statement of the peptide synthesis)) [H3K4me3Q5ser histone H3 tail peptide (ITC)]
5 | 2300 | 1940 | 1850 | – | ARTKQTARKSTGGKA (trimethyl-lysine at 4; histaminylated glutamine at 5; C-terminal amide (general statement of the peptide synthesis)) [H3K4me3Q5his histone H3 tail peptide (ITC)]
6 | – | – | – | 7940 | ARTKQTARKSTGGKA (histaminylated glutamine at 5; C-terminal amide (general statement of the peptide synthesis)) [H3Q5his histone H3 tail peptide (ITC and crystal)]

From paper PMC11754111 (2025)
